Experimental data as given in PMC5148605, “Prefabrication of a ribosomal protein subcomplex essential for eukaryotic ribosome formation” (eLife, 2016).

Columns and labels:
GST-Msn5 = target: T1, GST-Msn5 (S. cerevisiae, UniProt P52918 1-1224); experiment: pull-down; GST-tagged importins immobilised on Glutathione Sepharose, incubated with buffer, purified Fap7 or Fap7:uS11 for 1 hr, in presence of 100 µl competing E. coli lysate; Coomassie and Western; conditions: both partners purified
T1 construct: Msn5, S. cerevisiae; source: E. coli BL21, purified as previously described
T1 sequence (looked up): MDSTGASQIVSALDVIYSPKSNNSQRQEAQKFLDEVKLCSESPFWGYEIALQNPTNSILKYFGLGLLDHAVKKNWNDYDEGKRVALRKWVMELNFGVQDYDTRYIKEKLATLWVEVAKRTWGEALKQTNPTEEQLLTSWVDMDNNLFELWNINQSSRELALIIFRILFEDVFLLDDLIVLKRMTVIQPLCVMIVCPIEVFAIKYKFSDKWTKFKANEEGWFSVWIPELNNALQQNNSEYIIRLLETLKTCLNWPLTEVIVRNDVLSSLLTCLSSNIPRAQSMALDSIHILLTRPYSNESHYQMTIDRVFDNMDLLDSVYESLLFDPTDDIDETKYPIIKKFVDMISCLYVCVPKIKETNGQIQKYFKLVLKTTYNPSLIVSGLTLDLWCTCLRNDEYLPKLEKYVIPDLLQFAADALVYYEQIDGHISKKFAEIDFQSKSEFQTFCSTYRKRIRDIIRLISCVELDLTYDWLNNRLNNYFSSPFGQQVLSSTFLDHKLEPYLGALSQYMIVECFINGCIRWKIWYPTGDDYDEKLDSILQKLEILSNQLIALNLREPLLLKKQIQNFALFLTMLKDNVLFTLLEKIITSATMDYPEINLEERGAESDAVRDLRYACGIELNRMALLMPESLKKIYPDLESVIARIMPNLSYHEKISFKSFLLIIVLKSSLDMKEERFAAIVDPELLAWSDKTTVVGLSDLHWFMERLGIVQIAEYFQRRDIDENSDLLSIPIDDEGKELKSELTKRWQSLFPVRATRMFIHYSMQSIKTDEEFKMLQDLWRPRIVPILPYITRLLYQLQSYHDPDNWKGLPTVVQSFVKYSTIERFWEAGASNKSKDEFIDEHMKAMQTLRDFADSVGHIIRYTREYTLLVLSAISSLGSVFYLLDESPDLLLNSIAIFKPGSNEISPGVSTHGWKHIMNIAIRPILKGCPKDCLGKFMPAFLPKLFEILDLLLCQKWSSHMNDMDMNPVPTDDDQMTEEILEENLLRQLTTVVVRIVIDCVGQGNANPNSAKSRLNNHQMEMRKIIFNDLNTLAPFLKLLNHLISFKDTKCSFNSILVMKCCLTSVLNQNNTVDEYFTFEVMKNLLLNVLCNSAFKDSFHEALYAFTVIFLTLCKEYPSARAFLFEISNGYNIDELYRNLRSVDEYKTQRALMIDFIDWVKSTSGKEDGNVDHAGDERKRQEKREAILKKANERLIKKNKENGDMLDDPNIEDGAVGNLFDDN

GST-Kap123 = target: T2, GST-Kap123 (S. cerevisiae, UniProt P40069 1-1113); experiment: as above; conditions: both partners purified
T2 construct: importin Kap123, S. cerevisiae; source: E. coli BL21, purified as previously described
T2 sequence (looked up): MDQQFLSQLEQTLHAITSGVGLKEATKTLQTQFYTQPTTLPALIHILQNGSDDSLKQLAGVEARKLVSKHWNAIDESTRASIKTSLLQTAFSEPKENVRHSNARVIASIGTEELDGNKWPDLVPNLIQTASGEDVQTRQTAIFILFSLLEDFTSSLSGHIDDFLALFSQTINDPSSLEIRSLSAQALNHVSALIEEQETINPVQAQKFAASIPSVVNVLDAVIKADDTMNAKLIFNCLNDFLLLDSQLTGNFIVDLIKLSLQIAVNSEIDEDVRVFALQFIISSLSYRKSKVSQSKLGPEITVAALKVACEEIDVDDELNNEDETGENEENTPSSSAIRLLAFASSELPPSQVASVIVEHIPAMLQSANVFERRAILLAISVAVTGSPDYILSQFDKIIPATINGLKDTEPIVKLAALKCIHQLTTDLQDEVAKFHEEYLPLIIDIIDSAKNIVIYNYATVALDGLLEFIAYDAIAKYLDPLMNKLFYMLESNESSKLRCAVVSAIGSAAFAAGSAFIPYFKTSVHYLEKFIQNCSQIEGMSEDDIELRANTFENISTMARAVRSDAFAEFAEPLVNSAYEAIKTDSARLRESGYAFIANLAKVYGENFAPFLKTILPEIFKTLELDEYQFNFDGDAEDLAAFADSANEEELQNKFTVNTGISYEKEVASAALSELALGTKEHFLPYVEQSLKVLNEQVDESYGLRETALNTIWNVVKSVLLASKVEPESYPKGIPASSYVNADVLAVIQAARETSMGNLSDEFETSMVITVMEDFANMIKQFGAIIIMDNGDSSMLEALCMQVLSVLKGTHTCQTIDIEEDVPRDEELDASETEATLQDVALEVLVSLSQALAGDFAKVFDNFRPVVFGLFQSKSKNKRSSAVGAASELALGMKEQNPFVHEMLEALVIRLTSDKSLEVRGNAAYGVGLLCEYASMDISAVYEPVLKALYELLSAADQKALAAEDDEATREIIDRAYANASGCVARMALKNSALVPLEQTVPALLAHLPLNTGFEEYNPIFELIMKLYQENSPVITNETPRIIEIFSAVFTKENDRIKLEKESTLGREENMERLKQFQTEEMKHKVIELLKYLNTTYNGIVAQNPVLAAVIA

binding result (GST-Msn5): binds
binding result (GST-Kap123): binds
B1: Fap7 (enzyme, S. cerevisiae, UniProt Q12055 1-197, looked up)
chain: MEARRYGPNIIVTGTPGCGKSSTCEFLKNKLKDYKYYNISDFAKDNDCFEGYDEGRKSHIVDEDKLLDMLEPLLRQGNSIVDWHVNDVFPERLIDLVVVLRCDNSNLYSRLHARGYHDSKIEENLDAEIMGVVKQDAVESYEPHIVVELQSDTKEDMVSNVSRIVAWEKMWLEQHPDGVTNEYQGPRSDDEDDEDSE
notes: Fap7, conserved ATPase, S. cerevisiae (YDL166C); only the complex is printed as His6-Fap7:uS11; also called purified Fap7; Fap7 alone; source: E. coli BL21, purified
